Test results reported in patent publication US20070166710A1, “Methods for inhibiting adipogenesis and for treating type 2 diabetes” (priority 2003, published 2007).

B1: Foxa-2T156A (other, rat, UniProt P32182 1-458, looked up)
chain: MLGAVKMEGHEPSDWSSYYAEPEGYSSVSNMNASLGMNGMNTYMSMSAAAMGSGSGNMSAGSMNMSSYVGAGMSPSLAGMSPGAGAMAGMSGSAGAAGVAGMGPHLSPSLSPLGGQAAGAMGGLAPYANMNSMSPMYGQAGLSRARDPKTYRRSYAHAKPPYSYISLITMAIQQSPNKMLTLSEIYQWIMDLFPFYRQNQQRWQNSIRHSLSFNDFLKVPRAPDKPGKGSFWTLHPDSGNMFENGCYLRRQKRFKCENELALKEAAGAGSGGGKKTAPGTQASQVQLGEAAGSASETPAGTESPHSSASPCQEHKRGGLSELKGTPASALSPPEPAPSPGQQQQAAAHLLGPPHHPGLPPEAHLKPEHHYAFNHPFSINNLMSSEQQHHHSHHHHQPHKMDLKTYEQVMHYPGGYGSPMPGSLAMGPVTNKAGLDASPLAADTSYYQGVYSRPIMNSS
notes: Phosphorylation-deficient mutant; also called TI56A; Foxa-2TI56A
B2: Foxa-2R153K (other, rat, UniProt P32182 1-458, looked up)
chain: MLGAVKMEGHEPSDWSSYYAEPEGYSSVSNMNASLGMNGMNTYMSMSAAAMGSGSGNMSAGSMNMSSYVGAGMSPSLAGMSPGAGAMAGMSGSAGAAGVAGMGPHLSPSLSPLGGQAAGAMGGLAPYANMNSMSPMYGQAGLSRARDPKTYRKSYTHAKPPYSYISLITMAIQQSPNKMLTLSEIYQWIMDLFPFYRQNQQRWQNSIRHSLSFNDFLKVPRAPDKPGKGSFWTLHPDSGNMFENGCYLRRQKRFKCENELALKEAAGAGSGGGKKTAPGTQASQVQLGEAAGSASETPAGTESPHSSASPCQEHKRGGLSELKGTPASALSPPEPAPSPGQQQQAAAHLLGPPHHPGLPPEAHLKPEHHYAFNHPFSINNLMSSEQQHHHSHHHHQPHKMDLKTYEQVMHYPGGYGSPMPGSLAMGPVTNKAGLDASPLAADTSYYQGVYSRPIMNSS

Key:
[1] = molecular target: T1, HA-Akt (human Akt1 fused to an N-terminal HA-tag, expressed from pCMV-HA-Akt) (human, UniProt P31749 1-480); experiment: co-immunoprecipitation from transfected HEK/293 cells (anti-HA IP, Western blot for Foxa-2; the reverse anti-Foxa-2 IP also coprecipitated Akt)
T1 construct: Expressed in transfected HEK/293 or HepG2 cells; The methods also mention Akt2 for HEK/293 transfections, but pCMV-HA-Akt is defined as HA-Akt1; also called HA-Akt1; pCMV-HA-Akt-1; not shown: N-terminal HA-tag

[2] = molecular target: T1, HA-Akt (human Akt1 fused to an …); experiment: co-immunoprecipitation from transfected HEK/293 cells (anti-HA IP; the reverse anti-Foxa-2 IP gave the same result)

T1 sequence (P31749 whole entry, the tested form may be a part): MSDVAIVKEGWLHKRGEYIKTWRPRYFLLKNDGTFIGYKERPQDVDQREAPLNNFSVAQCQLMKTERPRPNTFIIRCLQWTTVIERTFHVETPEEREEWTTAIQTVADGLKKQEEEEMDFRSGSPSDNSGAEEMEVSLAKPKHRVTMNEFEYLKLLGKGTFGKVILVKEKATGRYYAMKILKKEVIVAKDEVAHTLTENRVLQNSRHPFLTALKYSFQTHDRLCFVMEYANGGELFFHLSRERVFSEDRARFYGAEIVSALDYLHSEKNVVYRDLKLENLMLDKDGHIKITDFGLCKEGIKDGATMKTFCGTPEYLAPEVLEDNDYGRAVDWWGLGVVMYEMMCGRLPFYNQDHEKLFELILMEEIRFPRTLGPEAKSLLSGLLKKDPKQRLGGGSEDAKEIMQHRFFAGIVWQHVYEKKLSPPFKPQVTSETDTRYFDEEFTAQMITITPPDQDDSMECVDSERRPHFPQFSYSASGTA

Row | Binder | binding result [1] | binding result [2]
1 | B1 | binds | 
2 | B2 |  | no binding
